One block for each molecule: values may come before it.
Experiments:
[1] = molecular target: long-form human leptin receptor, OB-Rb (human) (UniProt P48357); experiment: binding of labelled leptin to HEK293 cells stably transfected with human OB-Rb
[2] = molecular target: T1, rat C-reactive protein (rat, UniProt P48199 20-230); experiment: immunoprecipitation with anti-mouse leptin, western blot with anti-CRP
T1 construct: also called rat CRP; rat SLIP-1
T1 sequence (looked up): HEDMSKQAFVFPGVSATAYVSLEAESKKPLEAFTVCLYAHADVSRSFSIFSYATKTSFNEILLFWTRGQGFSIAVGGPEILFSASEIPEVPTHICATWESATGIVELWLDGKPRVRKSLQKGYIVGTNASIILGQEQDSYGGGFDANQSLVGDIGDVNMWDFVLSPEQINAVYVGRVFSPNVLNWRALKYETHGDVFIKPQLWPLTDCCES

[3] = molecular target: T2, human leptin (SEQ ID NO:4) (human, UniProt P41159 22-167); experiment: derived from the IC50 of CRP against 125I-human leptin binding to OB-Rb HEK293 cells
T2 construct: Recombinant human leptin; also called recombinant human leptin
Procedure: (§1) 4. […] After 10 minute incubation at room temperature, the reaction was stopped with 100 μl 0.1% trifluoroacetic acid (TFA). The reaction mixture was immediately purified by reverse-phase HPLC. The separation employed a 5 minute isocratic step at 20% eluant B in A, followed by two consecutive 30 minute linear gradients from 20 to 50%, then from 50 to 60% eluant B in A (where eluant A is water containing 0. 1% TFA and eluant B is acetonitrile containing 0.1% TFA) at a flow rate of 1.5 ml/min. […] The incubation would last for 3 hours at 4° C. before the media was aspirated and the cells were dissolved in 0.1N NaOH for scintillation counting.

[4] = molecular target: T3, mouse leptin (mouse), P41160; experiment: human CRP against mouse leptin (~2 ng/ml) binding to OB-Rb HEK293 cells (FIG. 3G); details: remark: other sources report otherwise
T3 chain: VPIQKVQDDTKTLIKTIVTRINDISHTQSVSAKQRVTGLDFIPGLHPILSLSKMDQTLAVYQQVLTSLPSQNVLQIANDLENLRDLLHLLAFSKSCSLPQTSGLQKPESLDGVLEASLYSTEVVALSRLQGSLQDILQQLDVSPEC

[5] = molecular target: T2, human leptin (SEQ ID NO:4); experiment: human CRP pre-incubated with 125I-human leptin (~2 ng/ml); inhibition of leptin binding to OB-Rb HEK293 cells, scintillation counting
Procedure: as §1

Sequence of long-form human leptin receptor, OB-Rb (human) (P48357 22-1165): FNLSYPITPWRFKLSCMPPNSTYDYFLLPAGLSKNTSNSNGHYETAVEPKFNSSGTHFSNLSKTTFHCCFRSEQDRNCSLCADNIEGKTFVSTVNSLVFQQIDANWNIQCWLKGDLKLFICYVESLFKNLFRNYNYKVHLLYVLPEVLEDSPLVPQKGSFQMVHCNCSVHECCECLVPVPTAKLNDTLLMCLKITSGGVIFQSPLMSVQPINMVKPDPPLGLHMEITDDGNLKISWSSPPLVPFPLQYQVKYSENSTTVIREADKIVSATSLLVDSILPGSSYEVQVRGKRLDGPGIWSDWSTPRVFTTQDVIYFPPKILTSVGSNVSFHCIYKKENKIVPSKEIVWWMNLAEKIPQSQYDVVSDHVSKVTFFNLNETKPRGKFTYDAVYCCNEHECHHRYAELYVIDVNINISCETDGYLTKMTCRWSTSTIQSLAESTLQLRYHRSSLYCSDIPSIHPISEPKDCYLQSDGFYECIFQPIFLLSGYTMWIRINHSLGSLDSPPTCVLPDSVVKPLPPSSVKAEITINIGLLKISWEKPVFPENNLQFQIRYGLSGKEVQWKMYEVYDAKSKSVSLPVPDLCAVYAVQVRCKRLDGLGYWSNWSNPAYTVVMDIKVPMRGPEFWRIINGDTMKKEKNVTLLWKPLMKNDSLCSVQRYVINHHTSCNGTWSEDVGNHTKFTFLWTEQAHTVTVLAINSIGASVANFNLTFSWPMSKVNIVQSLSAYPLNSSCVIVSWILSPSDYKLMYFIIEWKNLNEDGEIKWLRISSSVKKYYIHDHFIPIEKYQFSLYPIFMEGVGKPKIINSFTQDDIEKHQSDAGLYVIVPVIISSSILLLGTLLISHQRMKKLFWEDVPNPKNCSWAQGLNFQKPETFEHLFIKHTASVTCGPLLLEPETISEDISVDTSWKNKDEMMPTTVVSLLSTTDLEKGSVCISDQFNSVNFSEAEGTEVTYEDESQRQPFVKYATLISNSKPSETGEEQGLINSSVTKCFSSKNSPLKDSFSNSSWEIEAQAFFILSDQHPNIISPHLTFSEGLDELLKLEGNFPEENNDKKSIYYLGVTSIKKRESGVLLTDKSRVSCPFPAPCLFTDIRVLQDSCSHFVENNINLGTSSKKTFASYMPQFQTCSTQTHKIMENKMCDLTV

- Kd [1]: 1 nM
Molecule: human leptin (SEQ ID NO:4) (from UniProt P41159 22-167) (ligand)

- binding result [2]: binds
B1: mouse leptin (ligand, UniProt P41160 22-167, looked up)
chain: T3 chain
notes: Recombinant; also called recombinant mouse leptin; murine leptin

- molecular ratio CRP:leptin at the IC50 [3]: 5.8 CRP:leptin (molar, CRP pentamer)
- IC50 [4]: > 64 µg/mL
- IC50 [5]: ~0.08 µg/mL
B2: human C-reactive protein (other, UniProt P02741 19-224, looked up)
chain: QTDMSRKAFVFPKESDTSYVSLKAPLTKPLKAFTVCLHFYTELSSTRGYSIFSYATKRQDNEILIFWSKDIGYSFTVGGSEILFEVPEVTVAPVHICTSWESASGIVEFWVDGKPRVRKSLKKGYTVGAEASIILGQEQDSFGGNFEGSQSLVGDIGNVNMWDFVLSPDEINTIYLGGPFSPNVLNWRALKYEVQGEVFTKPQLWP
notes: Human SLIP-1 from the leptin column was identified as human CRP; also called human CRP; CRP

From patent US20060206948A1 (UNIVERSITY OF PITTSBURGH OF THE COMMONWEALTH SYSTEM OF …, published 2006)
